This experiment addresses HPV16 E6 oncoprotein, full-length, LexA bait (pGilda/LexA) (human papillomavirus 16) (UniProt P03126). In words: two-hybrid; full-length HPV16 E6 in pGilda/LexA as bait; growth on medium lacking leucine, blue colonies, beta-galactosidase activity (unit) with ONPG.
Sequence of UniProt P03126 (P03126 whole entry): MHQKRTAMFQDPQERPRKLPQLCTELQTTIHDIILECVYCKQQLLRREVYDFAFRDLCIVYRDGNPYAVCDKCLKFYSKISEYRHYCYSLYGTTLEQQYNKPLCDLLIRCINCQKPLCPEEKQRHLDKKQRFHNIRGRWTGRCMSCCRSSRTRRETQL

Substance “IRF-1 (interferon regulatory factor-1), yeast two-hybrid prey (natural protein)” yielded a β-galactosidase activity of 88.2 unit.
